Patent US20180273621A1 (AstraZeneca / MedImmune, published 2018)
Changes are numbered by the printed parent chain.

What was measured:
human CD19 antigen [1] = target: T1, human CD19 antigen (human, UniProt P15391 20-556); assay: cell-based or functional assay
T1 sequence (looked up): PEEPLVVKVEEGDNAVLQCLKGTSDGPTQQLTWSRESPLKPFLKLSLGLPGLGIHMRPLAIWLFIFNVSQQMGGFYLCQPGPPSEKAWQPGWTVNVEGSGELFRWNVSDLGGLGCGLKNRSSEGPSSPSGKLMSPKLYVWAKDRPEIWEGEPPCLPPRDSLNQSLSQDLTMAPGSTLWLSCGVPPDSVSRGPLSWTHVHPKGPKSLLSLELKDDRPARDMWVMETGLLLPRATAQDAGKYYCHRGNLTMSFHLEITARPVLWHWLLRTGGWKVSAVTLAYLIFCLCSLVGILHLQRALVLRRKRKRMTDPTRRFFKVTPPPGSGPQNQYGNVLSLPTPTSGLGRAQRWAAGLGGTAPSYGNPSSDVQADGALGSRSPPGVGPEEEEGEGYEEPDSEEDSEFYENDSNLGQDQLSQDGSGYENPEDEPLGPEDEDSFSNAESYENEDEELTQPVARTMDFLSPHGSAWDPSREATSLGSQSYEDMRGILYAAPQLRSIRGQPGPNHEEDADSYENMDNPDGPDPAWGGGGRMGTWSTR

human CD19 antigen [2] = target: T1, human CD19 antigen; assay: cell based ECL binding assay (Meso Scale Discovery; Lu et al. 2006) on 300B4 cells as titled on the sheet, Fab supernatant, signal in Units
Protocol: (§1) CDR specific phage display libraries were generated as described above. Libraries were screened by testing a large number of phage clones (approximately 400 clones per library) in single point cell based binding assay (Lu et al., J. Immunol. Methods 314:74-79 (2006)). Reagents and disposables were purchased from Meso Scale Discovery; assays were performed following the manufacturer's instructions.
(§2) Combinatorial phage display libraries were prepared as described above. Individual Fab clones from the combinatorial library were tested for binding to 300B4 and Raji cells (Lu et al., J. Immunol. Methods 314:74-79 (2006)).

human CD19 antigen [3] = target: T1, human CD19 antigen; assay: cell based ECL binding assay (Meso Scale Discovery; Lu et al. 2006) on 300B4 cells expressing recombinant human CD19, Fab supernatant, signal in Units
Protocol: as §1

human CD19 antigen [4] = target: T1, human CD19 antigen; assay: cell based ELISA on 300B4 cells expressing recombinant human CD19, OD450
Protocol: (§3) 300B4 cells were cultured according to standard protocols in RPMI 1640 medium containing L-glutamine and supplemented with 10% Fetal Calf Serum, β-mercaptoethanol in the presence of 1 mg/ml G418. A standard ELISA protocol can be used for the cell based CD19 binding assay. […] Binding reactions are performed in triplicates for each antibody concentration tested. Negative control wells using an isotype matched antibody of irrelevant specificity should be included in the assay. Following incubation with the antibody 300B4 cells are washed three times with 200 micro liter of ELISA buffer. The amount of chimeric, humanized, or human anti-CD19 antibodies bound to 300B4 cells can be detected using a goat anti-human kappa antibody conjugated with horseradish peroxidase according to standard protocols.

human CD19 antigen [5] = target: T1, human CD19 antigen; assay: cell based ECL binding assay (Meso Scale Discovery; Lu et al. 2006) on Raji cells as titled on the sheet, Fab supernatant, signal in Units
Protocol: as §1, §2

human CD19 antigen [6] = target: T1, human CD19 antigen; assay: cell based ELISA on 300B4 cells expressing recombinant human CD19, OD450; remark: listed apart in the source
Protocol: as §3
An isotype matched human antibody of irrelevant specificity was included in the assay as a negative control.

B1: afucosylated 16C4 anti-CD19 antibody (antibody, human IgG1, V domains shown)
VH: EVQLVESGGGLVQPGGSLRLSCAASGFTFSSSWMNWVRQAPGKGLEWVGRIYPGDGDTNYNVKFKGRFTISRDDSKNSLYLQMNSLKTEDTAVYYCARSGFITTVRDFDYWGQGTLVTVSS
VL: EIVLTQSPDFQSVTPKEKVTITCRASESVDTFGISFMNWFQQKPDQSPKLLIHEASNQGSGVPSRFSGSGSGTDFTLTINSLEAEDAATYYCQQSKEVPFTFGGGTKVEIK
modifications: afucosylated Fc N-glycan (as for 3649-aFuc)
% max. cell kill at 10 ug/ml, DB target cells (human CD19 antigen [1]): 34% | % max. cell kill at 10 ug/ml, Daudi target cells (human CD19 antigen [1]): 50% | % max. cell kill at 10 ug/ml, Farage target cells (human CD19 antigen [1]): 48% | % max. cell kill at 10 ug/ml, Granta-519 target cells (human CD19 antigen [1]): 6% | % max. cell kill at 10 ug/ml, Karpas-422 target cells (human CD19 antigen [1]): 62% | % max. cell kill at 10 ug/ml, Karpas-1106P target cells (human CD19 antigen [1]): 59% | % max. cell kill at 10 ug/ml, Nalm-6 target cells (human CD19 antigen [1]): 35% | % max. cell kill at 10 ug/ml, Namalwa target cells (human CD19 antigen [1]): 23% | % max. cell kill at 10 ug/ml, Oci-LY19 target cells (human CD19 antigen [1]): 47% | % max. cell kill at 10 ug/ml, RL target cells (human CD19 antigen [1]): 45% | % max. cell kill at 10 ug/ml, Raji target cells (human CD19 antigen [1]): 43% | % max. cell kill at 10 ug/ml, Toledo target cells (human CD19 antigen [1]): 48% | ADCC EC50, Daudi target cells (human CD19 antigen [1]): 0.0031 ng/mL | ADCC EC50, Farage target cells (human CD19 antigen [1]): 0.0141 ng/mL | ADCC EC50, Karpas-422 target cells (human CD19 antigen [1]): 0.0181 ng/mL | ADCC EC50, Karpas-1106P target cells (human CD19 antigen [1]): 0.009 ng/mL | ADCC EC50, Nalm-6 target cells (human CD19 antigen [1]): 0.0199 ng/mL | ADCC EC50, Namalwa target cells (human CD19 antigen [1]): 0.012 ng/mL | ADCC EC50, Oci-LY19 target cells (human CD19 antigen [1]): 0.0163 ng/mL | ADCC EC50, RL target cells (human CD19 antigen [1]): 0.0073 ng/mL | ADCC EC50, Raji target cells (human CD19 antigen [1]): 0.003 ng/mL | ADCC EC50, Toledo target cells (human CD19 antigen [1]): 0.0075 ng/mL

B2: 5C4 affinity matured Fab (Fab, V domains shown)
VH: B1 VH with S32V
VL: B1 VL with D30I, M37I, Q58P, G59Y, Q93A, S95T, E97R
notes: Fab
EC50 (read off the curve) (human CD19 antigen [2]): ~400 ng/mL

B3: 16C4 Fab (Fab, V domains shown)
VH: B1 VH
VL: B1 VL
notes: Fab with human γ1 CH1 and human kappa constant domain; also called Clone 16C4; 16C4sup
EC50 (read off the curve) (human CD19 antigen [3]): ~1000 ng/mL

B4: 16C4 affinity matured anti-CD19 IgG antibody (antibody, V domains shown)
VH: B1 VH
VL: B1 VL
% max. cell kill at 10 ug/ml, DB target cells (human CD19 antigen [1]): 6% | % max. cell kill at 10 ug/ml, Daudi target cells (human CD19 antigen [1]): 16% | % max. cell kill at 10 ug/ml, Farage target cells (human CD19 antigen [1]): 13% | % max. cell kill at 10 ug/ml, Granta-519 target cells (human CD19 antigen [1]): 0% | % max. cell kill at 10 ug/ml, Karpas-422 target cells (human CD19 antigen [1]): 6% | % max. cell kill at 10 ug/ml, Karpas-1106P target cells (human CD19 antigen [1]): 16% | % max. cell kill at 10 ug/ml, Nalm-6 target cells (human CD19 antigen [1]): 17% | % max. cell kill at 10 ug/ml, Namalwa target cells (human CD19 antigen [1]): 4% | % max. cell kill at 10 ug/ml, Oci-LY19 target cells (human CD19 antigen [1]): 6% | % max. cell kill at 10 ug/ml, RL target cells (human CD19 antigen [1]): 15% | % max. cell kill at 10 ug/ml, Raji target cells (human CD19 antigen [1]): 26% | % max. cell kill at 10 ug/ml, Toledo target cells (human CD19 antigen [1]): 12% | ADCC EC50, Daudi target cells (human CD19 antigen [1]): 0.0576 ng/mL | ADCC EC50, Farage target cells (human CD19 antigen [1]): 0.0927 ng/mL | ADCC EC50, Karpas-1106P target cells (human CD19 antigen [1]): 0.533 ng/mL | ADCC EC50, RL target cells (human CD19 antigen [1]): 0.0393 ng/mL | ADCC EC50, Raji target cells (human CD19 antigen [1]): 0.012 ng/mL | ADCC EC50, Toledo target cells (human CD19 antigen [1]): 0.0545 ng/mL

B5: 64D4 affinity matured Fab (16C4 variant, VH CDR2 Pro > Leu at 52A) (Fab, V domains shown)
VH: B1 VH with P53L
VL: B1 VL
notes: Fab with human γ1 CH1 and human kappa constant domain; position is Kabat
EC50 (read off the curve) (human CD19 antigen [3]): ~1000 ng/mL

B6: humanized anti-CD19 antibody #2 comprising HB12B-(3-72/JH4) VH, HB12B-3649 VK, and IgG1 heavy chain constant region (antibody, V domains shown)
VH: B1 VH with V62G, R106L
VL: B1 VL with E54A
notes: also called humanized HB12B antibody #2
EC50 (read off the curve) (human CD19 antigen [4]): ~80 ng/mL

B7: 6C11 affinity matured Fab (Fab, V domains shown)
VH: B1 VH with S32V, P53L
VL: B1 VL with Q58P, S95T, E97R
notes: Fab
EC50 (read off the curve) (human CD19 antigen [2]): ~500 ng/mL

B8: afucosylated 3649 anti-CD19 antibody (antibody, human IgG1, V domains shown)
VH: B1 VH with V62G, R106L
VL: B1 VL with E54A
modifications: complex N-glycoside-linked sugar chains linked to Asn297 of the Fc region in which fucose is not bound to N-acetylglucosamine in the reducing end
% max. cell kill at 10 ug/ml, DB target cells (human CD19 antigen [1]): 42% | % max. cell kill at 10 ug/ml, Daudi target cells (human CD19 antigen [1]): 51% | % max. cell kill at 10 ug/ml, Farage target cells (human CD19 antigen [1]): 48% | % max. cell kill at 10 ug/ml, Granta-519 target cells (human CD19 antigen [1]): 9% | % max. cell kill at 10 ug/ml, Karpas-422 target cells (human CD19 antigen [1]): 64% | % max. cell kill at 10 ug/ml, Karpas-1106P target cells (human CD19 antigen [1]): 59% | % max. cell kill at 10 ug/ml, Nalm-6 target cells (human CD19 antigen [1]): 39% | % max. cell kill at 10 ug/ml, Namalwa target cells (human CD19 antigen [1]): 25% | % max. cell kill at 10 ug/ml, Oci-LY19 target cells (human CD19 antigen [1]): 54% | % max. cell kill at 10 ug/ml, RL target cells (human CD19 antigen [1]): 46% | % max. cell kill at 10 ug/ml, Raji target cells (human CD19 antigen [1]): 44% | % max. cell kill at 10 ug/ml, Toledo target cells (human CD19 antigen [1]): 53% | ADCC EC50, Daudi target cells (human CD19 antigen [1]): 0.0576 ng/mL | ADCC EC50, Farage target cells (human CD19 antigen [1]): 0.0536 ng/mL | ADCC EC50, Karpas-422 target cells (human CD19 antigen [1]): 0.0442 ng/mL | ADCC EC50, Karpas-1106P target cells (human CD19 antigen [1]): 0.0142 ng/mL | ADCC EC50, Nalm-6 target cells (human CD19 antigen [1]): 0.0605 ng/mL | ADCC EC50, Namalwa target cells (human CD19 antigen [1]): 0.04 ng/mL | ADCC EC50, Oci-LY19 target cells (human CD19 antigen [1]): 0.0518 ng/mL | ADCC EC50, RL target cells (human CD19 antigen [1]): 0.0194 ng/mL | ADCC EC50, Raji target cells (human CD19 antigen [1]): 0.009 ng/mL | ADCC EC50, Toledo target cells (human CD19 antigen [1]): 0.0155 ng/mL

B9: 3C3 affinity matured Fab (16C4 variant) (Fab, V domains shown)
VH: B1 VH with S32V
VL: B1 VL with T31H, M37I, Q58P, G59Y, Q93A, F100I
notes: Fab
EC50 (read off the curve) (human CD19 antigen [5]): ~300 ng/mL | EC50 (read off the curve) (human CD19 antigen [2]): ~400 ng/mL

B10: humanized anti-CD19 antibody #1 comprising HB12B-(3-72/JH4) VH and HB12B-364987 VK (antibody, human IgG1, V domains shown)
VH: B1 VH with V62G, R106L
VL: B1 VL with E54A, Y91F
notes: Human IgG1/kappa constant regions; also called humanized HB12B antibody #1
EC50 (read off the curve) (human CD19 antigen [4]): ~70 ng/mL | EC50 (read off the curve) (human CD19 antigen [6]): ~200 ng/mL

B11: Chimeric HB12B antibody comprising HB12B VH and HB12B VK (antibody, human IgG1, V domains shown)
VH: QVQLQQSGPELVKPGASVKISCKASGYAFSSSWMNWVIQRPGQGLEWIGRIYPGDGDTNYNGKFKGKATLTADKSSSTAYMQLSSLTSVDSAVYFCARSGFITTVLDFDYWGHGTTLTVSS
VL: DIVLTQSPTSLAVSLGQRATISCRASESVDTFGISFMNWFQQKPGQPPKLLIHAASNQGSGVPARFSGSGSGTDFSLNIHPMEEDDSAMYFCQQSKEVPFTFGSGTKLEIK
notes: also called chHB12B; chimeric anti-CD19 antibody
EC50 (read off the curve) (human CD19 antigen [4]): ~80 ng/mL | EC50 (read off the curve) (human CD19 antigen [6]): ~200 ng/mL
